Results from the nanobody polyreactivity screen of Harvey et al. (2022).

experiment: yeast display, Sf9 membrane polyspecificity reagent, FACS + sequencing; frameworks hold sequencing errors
Summary of the method: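 Galactose induction of a Saccharomyces cerevisiae BJ5465 synthetic nanobody display library ran 36–48 hours. The cells were then stained for 1 hour at 4 °C with 10% biotinylated, detergent-solubilized Sf9 membrane reagent, pulled down on streptavidin microbeads and FACS-sorted into low and high (top ~1%) gates on expression and reagent-binding fluorescence. Labels for polyreactivity follow the gate of origin.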

Row | Sequence | polyreactivity (PSR sort gate)
1 | QVHLVESGGGLVQAGGSLRLSCAASGFIFKFDAMGWYRQAPGKEREMVAAITASSGRTNYADSVKGRFTISRDNAKNTVYLHMNSLKPEDTAVYFCAARRWPKYSAYRYDYWGQGTQVTVSS | high polyreactivity
2 | QVQLVESGGGLVQAGGSLRLSCAASGRIFRAIAMGLYRQAPGKERELVAAISFSGGGTYYADSVKGRFTISRDNAKYTVYLQMNSLKPEDTAVYYCAADQFWGGEEYDYWGQGTQVTVSS | low polyreactivity
3 | QVQLVESGGGLVQAGGSLRLSCAASGFIFLYNTMGWYRQAPGKERELVAAISGGGGSTSYADSVKGRFTISRDNAKNTVYLQMNSLKPEDTAVYYCAKKSTYYKWSRMYWGQGTQVTVSS | high polyreactivity
4 | QVQLVESGGGLVQAGGSLRLSCAASRIFRGYAMGWYRQAPGKERELVAAIRRGGSTNYADSVKGRFTISRDNAKNTVYLQMNCLKPEVTAVYYCNAYLYLPRYDYWGQGTQVTVSS | high polyreactivity
5 | QVQLVESGGGLVQAGGSLRLSCAASGRIFGLNAMGWYRQAPGKERELVAAISERDGSTYYADSVKGRFTISRDNAKNTVYLQMNSLKPEDTAVYYCAAEKPVHYVRGVHYDYWGQGTQVTVSS | low polyreactivity
6 | QVQLVESGGGLVQAGGSLRLSCAASGFIFSSYAKGWYRQAPGKETELVAAITSGGSTNYADSVKGRFTISRDNAKNTVYLQMNSLYPEDTAVYYCATVPGGSWFFHWWSTGGDDEYWGQGTQVTVSS | low polyreactivity
7 | QVQLLESGGGLVQAGGSLRLSCAASGITFLLNAMGWYRQAPGKERELVAAISRSGGRTYYADSVKGRFTISRDNAKNTVYLQMNSLKPEDTAVYYCAVVTQFGDGYYWGQGTQVTVSS | high polyreactivity
8 | QVQLVESRGALVQAGGSLRLSCAASGSIFSRYAMGWYRQAPGKERELVAAIRWTDSSTYYADSVKGRFTISRDHAKNTVYLQMNSLKPEDTAVYDCAKVYEGGSNKVDYWGQGTQVTVSS | low polyreactivity
9 | QVQLVESGGGLVQAGGSLRLSCAASGRTFRWYAMGWYRQAPGKERELVAAINPGGSTNYADSVKGRFTISRDNAKNSVYLQMNSLKPEDTAVYYCNAAGYDALTHNYYWGQGTQVTVSS | low polyreactivity
10 | QVQLVESGGGLVQAGGSLRLSCAASGFTFPRYAMGWYRQAPGKERELVAAITVGGGRTYYADSVKGRFTISRDNAKNTVYLQMNSLKPEDTAVYYCAADSHASTYDYWGQGTQVTVSS | low polyreactivity
11 | QVQLQESGGGLVQAGGSLRLSCAASGSIFDYVSMGWYRQAPREERELVVTITLGSNTYYADSVKGRFTISSDIGKNTVYLQMNSLNPEDTAVYYCAASALWGYVYPYWGLGTQVTVSS | high polyreactivity
12 | QVQLVESGGGLVQAGGSLRLSCAASGRIFYVYGMGWYRQAPGKERELVGAISKRGDNTYYADSVKGRFTISRDNAKNTVYLQMNSLNPEDTAVYYCNVKRYGGRSDYWGQGTQVTVSS | high polyreactivity
13 | QVQLVESGGGLVQAGGSLRLSCAAYASTLANYALGWYRQSPGKERELVAAINSGGSTYYADSVKGRFTISRDNAKNTVYLQMNSLKPEDTAVYYCAARYASPRYKSKMDYWGQGTQVTVSS | high polyreactivity
14 | QVQLVESGGGLVQAGGSLRLSCAASGSTFVYYAMGWYRQAPGKEREFVAAINGGGRTNYADSVKGRFTISRDNAKNTVYLQMNSLKPEDTAVYDCAADGLSNVRQMDYWGQGTQVTVSS | low polyreactivity
15 | QVQLVESGGGLVQAGGSLRLSCAASGSTFRYYAMGWYRQAPGKERELVAAISWSGGSTYYADSVKGRFTISRDNAKNTVYLQMNSLKPEDTAVYYCNKAWFPYYYYRFDYWGQGTQVTVSS | high polyreactivity
16 | QVQLVESGGGLVEAGGSLRLSCAASGRIFGRNAMGWYRQAPGKERELVAGISSGGTTDYADSVKGRFTISRDNAKNTVYLQMNSLKPEDTAVYYCNVGYAYDDQTYYLGESDYWGQGTQVTVSS | low polyreactivity
17 | QVQLVDSGGGLVQAGGSLRLSCAASGSIFWIYSMGWYRQAPGKERELVATISRGGSTYADSVKGRFTISRDNAKNTVYLQMNSLKPEDTPVYYCAARAFAGNQQAYYYWGQGTQVTVSS | high polyreactivity
18 | QVQLVESGGGLVQAGGSLRLSCAASGSIITPYTMGWYRQAPGKERELVAAITGSAGSTYYADSVKGRFTISRDNAKNTVYLQMNSLKPEDTAVYYCAAAVWGVYQWYYYWGQGTQVTVSS | high polyreactivity
19 | QVQLVESGGGLVHAGGSLRLSCAASGSTLGYNVMGWYRQAPGKERELVAAISGDGSTNYADSVKGRFTISRDNAKNTVYLQMNSLKREDTEVYYCNAPFWGYRTSFSYPVVQRFDYWGQGTHVTVSS | low polyreactivity
20 | QVQLVESVGGLVQAGASLRLSCAASGITFVYYALGWYRQAPGKERELVAAITSTGGSTYYADSVKGRFTISRDNAKNTVYLQMNSLKPEDTSVYYCAAVPRGTQGAMDYWGQGTQVTVSS | low polyreactivity
21 | QVQLVESGGGLVQAGGSLRLSCDASGSIFAWYAMGWYRQAPGKERELVATITWSGGSTYYADSVKGRFTISRDNANNTVYLQMNSLKQEDTAVYYCAADRVWPYYQYDYWGQGTQVSVSS | low polyreactivity

Row | Sequence | polyreactivity (PSR sort gate)
22 | QVQLVESGGGLVQAGGSLRLSCAASGITFTYNAMGWYRPAPGKERELVAAITWSGGSTFYADSVKGRFTISRDNAKNTVYLQMNSLKPEDTAVYYCARDTELYDRWLDYWGQGTQVTVSS | low polyreactivity
23 | QVPLVESGGGLVQAGGSLRLSCAASGHTFRFYTMGWYRQAPGKEREFVAAIRRRTGSTYYADSVKGRFTISRDNAKNTVYLQMNSLKPEDTAVYYCAAESRYYYRFYYGYHYDYWGQGTQVTVSS | high polyreactivity
24 | QVQLVESGGGLVQAGGSLRLSCAASGLTFYYYTMGWYRQAPGKERELVATISRSGTSTNYADSVKGRFTISRDNAKNTVYLQMNSLKPEDTAVYYCAAVLRWRDLFSEYYYWGQGTQVTVSS | high polyreactivity
25 | QVQLVESGGGLVQAGGSLRLSCAASGSTVYQYVMGRYRQAPGKVREFVAAITFSGSRTYYADSVKGRFTISRDNAKNTVYLQMNSLKPEDTAVYYCAVHSTSPRGKRYEYWGQGTQVTVSS | high polyreactivity
26 | QVQLVESGGGLVQAGGSLRLSCAASGSIFVGYAMGWYRQAPGKERELVAAITGSGTRTYYADSVKGRFTISRDNAKNTVFLQMNSLKPEDTAVYYCAAPLSYKNVKYDYWGQGTQVTVSS | low polyreactivity
27 | QVQLVESGGGLVQAGGSLRLSCAASGSIFPGYAMGWYRQAPGKERELVATITYSDGSTYYADSVKGRFTISRDNAKNTVSLQMNSLKPEDTAVYYCNAASRGAGTSIWSWYDHWGQGTQVTVSS | low polyreactivity
28 | QVQLVESAGGLVQAGGSLRLSCAASGSIIADNAMGWDRQSPGTERELVAAITGGDSTYYADSVKGRFTISRDNAKNTVYLQMNSLKPEDTAVYYCNADRFRGRTVDGDYWGQGTQVTVSS | low polyreactivity
29 | QVQLVESGGGLVQAGGSLRLSCAASGFTFPAYTMGWYRQAPGKERELVSAITSSGGNTYYADSVKGRFTISRDNAKNTVYLQMNSLKPEDTAVYYCSTVSVRGPSYDHVRYDYWGQGTQVTVSS | low polyreactivity
30 | QVQLVESGGGLVQAGGSLRLSCAASGLIFYAYAMGWYRQAPGKERELVAAISYSGGSTYYADSVKGRFTISRDNAKNTVYLQMNSLKPEDTAVYYCAASYISVYWRWYEYWGQGTQVTVSS | high polyreactivity
31 | QVQLVESGGGLFQAGGSLRLSCAASGSIFTPNTMGWYRKAPGKERELVAAITIRGGSTYYADSLKGRFTISRDNAKNTVYLQMNSLKPEDTAVYYCATEYALRYYLVDYWGQGTQVTVSS | low polyreactivity
32 | QVQLEESGGGLVQAGGSLRLSCAAAGINFTYYAMGWYRQAPGKERELVAAISYRGGSTYADSVKGRFTISRDNAKNTVYLPMNSLKPEDTAVYYFAADSPVPDSGEGYWGQGTQVTVSS | high polyreactivity
33 | QVQLVESAGGLVQAGGSLRLSCAASGRTFIGNAMGWYRQAPAKERELVAGISYRGGSTYYADSVKGRFSFSRDNAKNTVYLQMNSLKPEDTAVYYCAAPGRGGYYYWGQGTQVTVSS | high polyreactivity
34 | QVQLEESGGGLVQAGGSLRLSCAASGSTFRLYAMGWYRQAPGKERELVATITNGGNTYYADSVKGRFTISRDNAKNTVYLQMNSLKPEDTAVYYCAKRLSRRYDYWGQGTQGTVSS | low polyreactivity
35 | QVQLVESGGGLVQAGGSLRLSCAASGRTIYSNAMGGYRQAPGKERELVAAITGSSGSTYYADSVKGRFTISRDNAKNTVYLQMNSLKPEDTAVYYCAASCYCSLVRQLRLRGQGTQVTVSS | low polyreactivity
36 | QVQLVESGGGLVQAGGSLRLSCAASGSIFTKYAMGWYRQAPGKEREFVAAITLSGGSTYYADSVKGRFTISRDNAKNTVYLQMNSLKPEDTAVYYCNAAYTYVTAWYYYWGQGTQVTVSS | high polyreactivity
37 | QVQLVESGGGLVQAGGSLRLSCAASGSISSQYAMGWYRQAPGKERELVAAISYSGGSTYYADSVKGRFTISRDNAKNTVYLQMNSLKPEDTAVYYCAAETSYYTRWFDGHYYYWGQGTQVTVSS | high polyreactivity
38 | QVQLVESGGGLVQAGGSLRLSCAASGRIFGDYAMGWYRQAPGKERELVADITWSGGSTYYADSVKGRVTISRDNAKHTVYLQMNSLKPEDTAVYYCNADVWFYYTFDYWGQGTQVTVSS | low polyreactivity
39 | QVQLVESGGGLVQAGGSLPLSCAASGFISWGNAMGWSRQAPGKARELVAAISWRDARTYYADSVKGRFTISRDNAKNTVYLQMNSLKPEATAVYYCNAVTAYVSRNLGGYRWFDYWGQGTQVTVSA | low polyreactivity
40 | QVQLVESGGGLVQAGGSLRLSCADSGIIFAYYDMGWYRQAPGKERELVASISSTGGSTYYADSVKGRFTISSDNAKNTVYLQMNSLKPEDTAVYYCAVDGLPPKDALHLYYYWGQGTQVTVSS | low polyreactivity
41 | QVQLEQSGGGLVQAGGSLRLSCAASGRTFVSNAMGWYRQAPGKERELVADITSGGSTDYADSVKGRFTISRDNANNTVYLQMNSLKPEDTAVYYCATDLWRWYGWFDYWGQGTQVTVSS | low polyreactivity
